Values of other authors, collected in PMC9331257.
pKd, pKi: −log10 of the molar value.

Key:
[1] = target: PAC1R (Homo sapiens) (UniProt P41586); assay: radioligand binding
[2] = target: PACAP type II receptor (Homo sapiens) (UniProt P32241); assay: radioligand binding
[3] = target: VPAC2R (Homo sapiens) (UniProt P41587); assay: [125I]Ac-His1-PACAP27 displacement
[4] = target: PAC1R (Homo sapiens) (UniProt P41586); assay: [125I]Ac-His1-PACAP27 displacement
[5] = target: VPAC1R (Homo sapiens) (UniProt P32241); assay: [125I]VIP displacement
[6] = target: PAC1R (Homo sapiens) (UniProt P41586); assay: radioligand
[7] = target: PACAP type II receptor (Homo sapiens) (UniProt P32241); assay: radioligand

UniProt P41586, sequence (P41586 21-468): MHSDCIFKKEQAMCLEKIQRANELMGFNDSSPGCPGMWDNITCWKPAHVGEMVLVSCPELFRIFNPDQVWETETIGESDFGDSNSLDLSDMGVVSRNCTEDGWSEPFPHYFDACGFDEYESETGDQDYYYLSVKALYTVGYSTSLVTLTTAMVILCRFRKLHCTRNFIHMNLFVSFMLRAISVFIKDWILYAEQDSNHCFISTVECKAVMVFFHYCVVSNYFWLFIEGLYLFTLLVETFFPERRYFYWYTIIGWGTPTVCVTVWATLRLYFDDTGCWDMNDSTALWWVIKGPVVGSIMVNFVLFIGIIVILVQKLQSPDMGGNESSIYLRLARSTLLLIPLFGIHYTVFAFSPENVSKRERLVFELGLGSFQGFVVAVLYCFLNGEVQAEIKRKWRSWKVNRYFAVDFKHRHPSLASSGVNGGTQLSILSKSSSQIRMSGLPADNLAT
VIP, sequence (P01282 125-152): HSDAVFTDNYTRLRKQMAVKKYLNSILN
PACAP, sequence (P18509 82-129): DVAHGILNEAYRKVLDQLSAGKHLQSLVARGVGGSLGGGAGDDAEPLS
UniProt P41587, sequence (P41587 24-438): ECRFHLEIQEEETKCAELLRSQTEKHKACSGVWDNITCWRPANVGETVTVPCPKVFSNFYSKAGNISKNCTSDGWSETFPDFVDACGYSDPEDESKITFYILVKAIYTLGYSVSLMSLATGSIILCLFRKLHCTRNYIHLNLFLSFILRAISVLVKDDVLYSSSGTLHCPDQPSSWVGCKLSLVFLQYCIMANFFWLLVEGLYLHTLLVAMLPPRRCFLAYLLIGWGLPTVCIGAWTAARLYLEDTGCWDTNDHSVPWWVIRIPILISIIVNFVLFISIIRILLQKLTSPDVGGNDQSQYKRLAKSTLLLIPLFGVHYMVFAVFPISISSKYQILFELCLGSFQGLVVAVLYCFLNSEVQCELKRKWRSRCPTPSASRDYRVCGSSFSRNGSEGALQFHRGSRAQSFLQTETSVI

For PACAP (from UniProt P18509), the pKd [1] is listed as 9.30 and the pKd [2] is listed as 9.30.

For PACAP(6-38) 6-38 (from UniProt P18509), the pKi [3] is given as 7.40, the pKi [4] is given as 7.52 and the pKi [5] is given as 6.22.

In the case of VIP (from UniProt P01282), the pKd [6] is listed as < 6.30 and the pKd [7] is listed as 9.30.
